Test results: patent US20060210973A1

Molecular target: HA-TrioGEFD2 (pMTHA-TrioGEFD2) (UniProt O75962)
Assay: cell-based or functional assay

For GFP alone, the percentage of co-transfected PC12 cells with neurites after NGF was 16%.
